Source: patent publication US20200062863A1 (CSL BEHRING, published 2020)
Substitutions are numbered along the chain they refer to. Blank lines part the entries; values can stand above or below the binder they belong to.

Columns and labels:
human Factor XIIa-beta [1] = molecular target: T1, human Factor XIIa-beta (human, UniProt P00748 354-615, limits assumed); experiment: SPR (Biacore A100), unpurified IgG4 supernatant captured on anti-human IgG, single FXIIa beta concentration (100 nM), 37 C, 1:1 fit; estimated
T1 construct: Bought from Enzyme Research Laboratories; also called FXIIa beta; FXIIa-beta
T1 sequence: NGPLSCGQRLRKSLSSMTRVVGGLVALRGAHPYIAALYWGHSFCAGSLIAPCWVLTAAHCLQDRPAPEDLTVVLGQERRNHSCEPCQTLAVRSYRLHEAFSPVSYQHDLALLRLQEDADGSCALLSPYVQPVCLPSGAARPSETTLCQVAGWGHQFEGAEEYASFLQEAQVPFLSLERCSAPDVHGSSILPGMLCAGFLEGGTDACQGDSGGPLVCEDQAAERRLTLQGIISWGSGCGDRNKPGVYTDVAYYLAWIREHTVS
Protocol: Anti-human (Goat anti-human IgG (gamma) mouse adsorbed, Invitrogen, Cat No. H10500) was chemically immobilised on a CM-5 sensor surface using amine coupling chemistry. Culture supernatants were diluted 1/60 with running buffer before capture. Antibodies were captured for 180 seconds representing an average capture of 800 response units (RU). FXIIa beta was then injected at zero and 100 nM for 180 seconds, and dissociated for 180 seconds. All assays were conducted on a Biacore A100 instrument at 37 degrees Celsius and the data fitted to a 1:1 kinetic model.

human Factor XIIa-beta [2] = molecular target: T1, human Factor XIIa-beta; experiment: SPR (Biacore), KD against parental 3F7
human Factor XIIa-beta [3] = molecular target: T1, human Factor XIIa-beta; experiment: SPR (Biacore), purified IgG4 captured on anti-human IgG, FXIIa beta 0-40 nM, 1:1 fit, 25 C
human Factor XIIa-alpha = molecular target: T2, human Factor XIIa-alpha (human, UniProt P00748 20-615); experiment: cell-based or functional assay
T2 sequence: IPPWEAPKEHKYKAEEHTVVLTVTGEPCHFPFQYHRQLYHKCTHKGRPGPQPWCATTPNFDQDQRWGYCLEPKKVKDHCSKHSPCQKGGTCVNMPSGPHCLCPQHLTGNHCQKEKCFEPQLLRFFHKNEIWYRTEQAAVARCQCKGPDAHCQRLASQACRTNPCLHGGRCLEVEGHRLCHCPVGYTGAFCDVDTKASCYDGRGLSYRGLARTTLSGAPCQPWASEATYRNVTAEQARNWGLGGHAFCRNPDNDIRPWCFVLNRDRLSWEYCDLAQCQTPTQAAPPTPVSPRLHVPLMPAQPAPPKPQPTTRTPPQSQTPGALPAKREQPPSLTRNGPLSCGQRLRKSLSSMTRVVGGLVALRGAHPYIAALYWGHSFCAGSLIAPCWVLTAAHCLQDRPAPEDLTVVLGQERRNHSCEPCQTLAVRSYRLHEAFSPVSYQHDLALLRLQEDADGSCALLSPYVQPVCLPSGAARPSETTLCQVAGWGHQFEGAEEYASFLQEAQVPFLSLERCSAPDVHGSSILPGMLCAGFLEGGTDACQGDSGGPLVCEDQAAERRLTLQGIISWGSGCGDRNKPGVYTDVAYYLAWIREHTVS

B2: VR103 (antibody, V domains shown)
VH: EVQLLESGGGLVQPGGSLRLSCAASGFTFSKYIMQWVRQAPGKGLEWVSGIDVPVRGTVYADSVKGRFTISRDNSKNTLYLQMNSLRAEDTAVYYCARALPRSGYLISPHYYYYALDVWGQGTTVTVSS
VL: QSELTQPPSASGTPGQRVTISCSGSSSNIGRNYVYWYQQVPGTAPKLLIYSNNQRPSGVPDRFSGSKSGTSASLVISGLRSEDEADYYCAAWDASLRGVFGGGTKLTVLG
notes: Libraries were built on germline stop templates, so frameworks may differ
Kd (human Factor XIIa-beta [1]): 2.87 nM

B3: VR46 (antibody, V domains shown)
VH: B2 VH with D52R, V53P, P54S, V55G, R56G, G57T
VL: QSVLTQPPSASGTPGQRVTISCSGSSSNIGRNYVYWYQQLPGTAPKLLIYSNNQRPSGVPDRFSGSKSGTSASLAISGLRSEDEADYYCASWELPLRGVFGGGTKLTVL
notes: as for B2
Kd (human Factor XIIa-beta [1]): 6.67 nM

B4: VR167 (antibody, V domains shown)
VH: B2 VH with D52R, V53P, P54S, V55G, R56G, G57T, I107M, S108K, P109T, H110G
VL: B2 VL
notes: as for B2
Kd (human Factor XIIa-beta [1]): 5.8 nM

B5: VR160 (antibody, V domains shown)
VH: B2 VH with D52R, V53P, P54S, V55G, R56G, G57T, I107M, S108K, H110G
VL: B2 VL
notes: as for B2
Kd (human Factor XIIa-beta [1]): 7.13 nM

B6: VR101 (antibody, V domains shown)
VH: B2 VH with D52N, V53P, P54A, V55T, G57S
VL: B2 VL
notes: as for B2
Kd (human Factor XIIa-beta [1]): 3.33 nM

B9: VR107 (antibody, V domains shown)
VH: B2 VH with D52N, V53P, P54A, V55T, G57T
VL: B2 VL
notes: as for B2
Kd (human Factor XIIa-beta [1]): 2.45 nM

B10: VR58 (antibody, V domains shown)
VH: B2 VH with D52R, V53P, P54S, V55G, R56G, G57T
VL: B3 VL with S91A, E93D, L94P, P95Q, L96V, G98L, V99A
notes: as for B2
Kd (human Factor XIIa-beta [1]): 5.33 nM

B11: VR99 (antibody, V domains shown)
VH: B2 VH with D52N, V53P, P54A, V55T, R56M, G57T
VL: B2 VL
notes: as for B2
Kd (human Factor XIIa-beta [1]): 9.19 nM

B12: VR14 (antibody, V domains shown)
VH: B2 VH with D52R, V53P, P54S, V55G, R56G, G57T
VL: B3 VL with S27G, N28M, I29V, G30E, R31Q, S91A, E93D, L94A, P95S
notes: as for B2
Kd (human Factor XIIa-beta [1]): 6.22 nM

More lines, in order of falling Kd (human Factor XIIa-beta [1]), values ahead:

Kd (human Factor XIIa-beta [1]): 7.05 nM
B8: VR53 (antibody, V domains shown)
VH: B2 VH with D52R, V53P, P54S, V55G, R56G, G57T
VL: B3 VL with S91A, E93D, L94Q, P95Q, L96V, G98K, V99T
notes: as for B2

Kd (human Factor XIIa-beta [1]): 5.63 nM
B1: VR39 (antibody, V domains shown)
VH: B2 VH with D52R, V53P, P54S, V55G, R56G, G57T
VL: B3 VL with E93W, L94N, P95D
notes: as for B2

Kd (human Factor XIIa-beta [1]): 2.04 nM
Fold affinity improvement (human Factor XIIa-beta [2]): 25 fold
Kd (human Factor XIIa-beta [3]): 0.35 nM
koff (human Factor XIIa-beta [3]): 3.9e-05 s⁻¹
kon (human Factor XIIa-beta [3]): 110000 M⁻¹ s⁻¹
% Inhibition, ratio FXIIa-alpha:Antibody 1:0.1 (human Factor XIIa-alpha): 33.7%
% Inhibition, ratio FXIIa-alpha:Antibody 1:0.2 (human Factor XIIa-alpha): 66.9%
% Inhibition, ratio FXIIa-alpha:Antibody 1:0.5 (human Factor XIIa-alpha): 100%
% Inhibition, ratio FXIIa-alpha:Antibody 1:1 (human Factor XIIa-alpha): 100%
% Inhibition, ratio FXIIa-alpha:Antibody 1:2 (human Factor XIIa-alpha): 100%
% Inhibition, ratio FXIIa-alpha:Antibody 1:5 (human Factor XIIa-alpha): 100%
% Inhibition, ratio FXIIa-alpha:Antibody 1:10 (human Factor XIIa-alpha): 100%
B13: VR110 (antibody, V domains shown)
VH: B2 VH with V53M, V55T, R56K
VL: B2 VL

Kd (human Factor XIIa-beta [1]): 1.56 nM
Fold affinity improvement (human Factor XIIa-beta [2]): 57 fold
Kd (human Factor XIIa-beta [3]): 0.15 nM
koff (human Factor XIIa-beta [3]): 2.5e-05 s⁻¹
kon (human Factor XIIa-beta [3]): 170000 M⁻¹ s⁻¹
% Inhibition, ratio FXIIa-alpha:Antibody 1:0.1 (human Factor XIIa-alpha): 39.4%
% Inhibition, ratio FXIIa-alpha:Antibody 1:0.2 (human Factor XIIa-alpha): 72.8%
% Inhibition, ratio FXIIa-alpha:Antibody 1:0.5 (human Factor XIIa-alpha): 100%
% Inhibition, ratio FXIIa-alpha:Antibody 1:1 (human Factor XIIa-alpha): 100%
% Inhibition, ratio FXIIa-alpha:Antibody 1:2 (human Factor XIIa-alpha): 100%
% Inhibition, ratio FXIIa-alpha:Antibody 1:5 (human Factor XIIa-alpha): 100%
% Inhibition, ratio FXIIa-alpha:Antibody 1:10 (human Factor XIIa-alpha): 100%
B7: VR115 (antibody, V domains shown)
VH: B2 VH with V53I, V55T, R56K
VL: B2 VL
